Test results taken from publication PMC3723540, “A Moonlighting Enzyme Links Escherichia coli Cell Size with Central Metabolism” (PLoS Genetics, 2013).

Experiments:
[1] = target: the molecule itself; test: 90° angle light scattering; 5 µM FtsZ in polymerization buffer (50 mM MES, 2.5 mM MgCl2, 1 mM EGTA, 50 mM KCl, pH 6.5), assembly started with 1 mM GTP, 30°C
[2] = target: FtsZ (tubulin-like cell division protein) of E. coli, untagged (E. coli) (UniProt P0A9A6)
[3] = target: FtsZ (tubulin-like cell division protein) of E. coli, untagged (E. coli) (UniProt P0A9A6); remark: listed apart in the source

| reduction of FtsZ's GTP hydrolysis (regenerative coupled GTPase assay), 5 µM FtsZ, ratios FtsZ:OpgH^N of 1:1 (25%), 1:1.5 (55%) and 1:2 (84%); FtsZ alone 5.1 GTP/minute/FtsZ [2] [%] | apparent critical concentration (CcApp) of FtsZ for GTP hydrolysis at 0 µM (0.69 µM), 2.5 µM (1.31 µM), 5 µM (1.85 µM) and 10 µM OpgH^N (4.08 µM) [3] [µM] | Binder | binding result [1] |
| --- | --- | --- | --- |
|  |  | FtsZ (tubulin-like cell division protein) of E. coli, untagged (natural protein, UniProt P0A9A6 1-383, looked up, FtsZ, cell division protein of E. coli, in its native (untagged) form; also called E. coli FtsZ; source: untagged) MFEPMELTNDAVIKVIGVGGGGGNAVEHMVRERIEGVEFFAVNTDAQALRKTAVGQTIQIGSGITKGLGAGANPEVGRNAADEDRDALRAALEGADMVFIAAGMGGGTGTGAAPVVAEVAKDLGILTVAVVTKPFNFEGKKRMAFAEQGITELSKHVDSLITIPNDKLLKVLGRGISLLDAFGAANDVLKGAVQGIAELITRPGLMNVDFADVRTVMSEMGYAMMGSGVASGEDRAEEAAEMAISSPLLEDIDLSGARGVLVNITAGFDLRLDEFETVGNTIRAFASDNATVVIGTSLDPDMNDELRVTVVATGIGMDKRPEITLVTNKQVQQPVMDRYQQHGMAPLTQEQKPVAKVVNDNAPQTAKEPDYLDIPAFLRKQAD | binds |
| 84 | 4.08 | OpgH^N (N-terminal cytoplasmic domain of the glucosyltransferase OpgH, residues 1-138) (domain or fragment) MNKTTEYIDAMPIAASEKAALPKTDIRAVHQALDAEHRTWAREDDSPQGSVKARLEQAWPDSLADGQLIKDDEGRDQLKAMPEAKRSSMFPDPWRTNPVGRFWDRLRGRDVTPRYLARLTKEEQESEQKWRTVGTIRR |  |
